Laboratory results: publication PMC5008402

Legend:
phospho-specific blot = settings: glycan lost; control: WT TAB3
[1] = Flag IP, pThr404 TAB3 blot; settings: glycan lost; control: WT TAB3, IL-1β treated

B1: TAK1 binding protein 3 (TAB3): S408A (protein)
parent chain: MAQSSPQLDIQVLHDLRQRFPEIPEGVVSQCMLQNNNNLEACCRALSQESSKYLYMEYHSPDDNRMNRNRLLHINLGIHSPSSYHPGDGAQLNGGRTLVHSSSDGHIDPQHAAGKQLICLVQEPHSAPAVVAATPNYNPFFMNEQNRSAATPPSQPPQQPSSMQTGMNPSAMQGPSPPPPPPSYMHIPRYSTNPITVTVSQNLPSGQTVPRALQILPQIPSNLYGSPGSIYIRQTSQSSSGRQTPQSTPWQSSPQGPVPHYSQRPLPVYPHQQNYQPSQYSPKQQQIPQSAYHSPPPSQCPSPFSSPQHQVQPSQLGHIFMPPSPSTTPPHPYQQGPPSYQKQGSHSVAYLPYTASSLSKGSMKKIEITVEPSQRPGTAINRSPSPISNQPSPRNQHSLYTATTPPSSSPSRGISSQPKPPFSVNPVYITYTQPTGPSCTPSPSPRVIPNPTTVFKITVGRATTENLLNLVDQEERSAAPEPIQPISVIPGSGGEKGSHKYQRSSSSGSDDYAYTQALLLHQRARMERLAKQLKLEKEELERLKSEVNGMEHDLMQRRLRRVSCTTAIPTPEEMTRLRSMNRQLQINVDCTLKEVDLLQSRGNFDPKAMNNFYDNIEPGPVVPPKPSKKDSSDPCTIERKARRISVTSKVQADIHDTQAAAADEHRTGSTQSPRTQPRDEDYEGAPWNCDSCTFLNHPALNRCEQCEMPRYT
other: TAB3 S60 and S506 phosphorylation (phospho-specific blot): no change
other: TAB3 Thr404 phosphorylation [1]: decreases
